Source: the supplement of paper PMC9233669
Variants at the floor of the assay were thinned out.

Legend:
biotinyl-Val-oxazolone = test: self-aminoacylation, catalytic enhancement (BVO) (fold over background); higher = more active; k-Seq, kA / k0A0; sequences stand for … in GGGAAUGGAUCCACAUCUACGAAUUC…UUCACUGCAGACUUGACGAAGCUG
Procedure, shortened: (§1)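 Each biotinyl-aminoacyl-oxazolone, at 2–1250 μM, was incubated with mutagenized RNA pools (0.43 μM) carrying a 21-nt variable region. The 50 μL reactions contained HEPES/NaCl/KCl/MgCl2/CaCl2 buffer with 5% acetonitrile at pH 6.9–7.0 and ran for 90 minutes at room temperature. After streptavidin capture, RNA was measured by qPCR in triplicate and by Illumina sequencing, and catalytic enhancement was calculated as median kA over the uncatalyzed rate from a pseudo-first-order fit of per-sequence fraction reacted.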

biotinyl-Phe-oxazolone = test: self-aminoacylation, catalytic enhancement (BFO) (fold over background); higher = more active; k-Seq, kA / k0A0; sequences stand for … in GGGAAUGGAUCCACAUCUACGAAUUC…UUCACUGCAGACUUGACGAAGCUG
Procedure, shortened: as §1

biotinyl-Met-oxazolone = test: self-aminoacylation, catalytic enhancement (BMO) (fold over background); higher = more active; k-Seq, kA / k0A0; sequences stand for … in GGGAAUGGAUCCACAUCUACGAAUUC…UUCACUGCAGACUUGACGAAGCUG
Procedure, shortened: as §1

biotinyl-Ile-oxazolone = test: self-aminoacylation, catalytic enhancement (BIO) (fold over background); higher = more active; k-Seq, kA / k0A0; sequences stand for … in GGGAAUGGAUCCACAUCUACGAAUUC…UUCACUGCAGACUUGACGAAGCUG
Procedure, shortened: as §1

biotinyl-Leu-oxazolone = test: self-aminoacylation, catalytic enhancement (BLO) (fold over background); higher = more active; k-Seq, kA / k0A0; sequences stand for … in GGGAAUGGAUCCACAUCUACGAAUUC…UUCACUGCAGACUUGACGAAGCUG
Procedure, shortened: as §1

biotinyl-Trp-oxazolone = test: self-aminoacylation, catalytic enhancement (BWO) (fold over background); higher = more active; k-Seq, kA / k0A0; sequences stand for … in GGGAAUGGAUCCACAUCUACGAAUUC…UUCACUGCAGACUUGACGAAGCUG
Procedure, shortened: as §1

Sequence	self-aminoacylation (biotinyl-Val-oxazolone)	self-aminoacylation (biotinyl-Phe-oxazolone)	self-aminoacylation (biotinyl-Met-oxazolone)	self-aminoacylation (biotinyl-Ile-oxazolone)	self-aminoacylation (biotinyl-Leu-oxazolone)	self-aminoacylation (biotinyl-Trp-oxazolone)
AUUCACCUAGGUCGUCGGGUA [Fam2.2 aminoacylation ribozyme variant]	1.95	6.61	2.24	1.85	2.71	1.95
AUUCACCUAGGUCGUGGGGUG [Fam2.2 aminoacylation ribozyme variant]	1.61	5.74	1.5	1.54	1.97	1.66
AUUCACCUAGGUCGUUGGGUG [Fam2.2 aminoacylation ribozyme variant]	1.2	3.95	1.42	1.35	1.52	1.23
AUUCACCUAGGUCUUCCGGUG [Fam2.2 aminoacylation ribozyme variant]	7	99.3	11.2	7.6	17.2	12.2
AUUCACCUAGGUCUUCGAGUG [Fam2.2 aminoacylation ribozyme variant]	2.13	9.5	2.99	2.03	3.65	3.26
AUUCACCUAGGUCUUCGGGCG [Fam2.2 aminoacylation ribozyme variant]	2.83	13.6	3.94	2.8	5.23	2.99
AUUCACCUAGGUCUUGGGGUG [Fam2.2 aminoacylation ribozyme variant]	6.44	77.3	11.2	5.73	13.8	9.73
AUUCACCUAGGUGAUCGCGUG [Fam2.2 aminoacylation ribozyme variant]	2.31	14.6	2.86	2.69	4.17	2.83
AUUCACCUAGGUGAUCGGGCG [Fam2.2 aminoacylation ribozyme variant]	3.62	12.5	3.9	3.28	4.11	3.84
AUUCACCUAGGUGAUGGGGUG [Fam2.2 aminoacylation ribozyme variant]	2.21	14.4	2.65	2.02	2.81	2.65
AUUCACCUAGGUGCUCGGGUG [Fam2.2 aminoacylation ribozyme variant]	3.1	31.1	3.67	3.07	4.46	3.64
AUUCACCUAGGUGUUCGGGUG [Fam2.2 aminoacylation ribozyme variant]	2.93	21.7	3.31	2.79	4.31	3.74
AUUCACCUAGGUUACCGGGUG [Fam2.2 aminoacylation ribozyme variant]	2.63	18.5	3.68	2.49	3.98	3.78
AUUCACCUAGGUUAUCGGGAG [Fam2.2 aminoacylation ribozyme variant]	1.55	0.308	1.17	1.21	1.17	0.528
AUUCACCUAGGUUAUCGGGUC [Fam2.2 aminoacylation ribozyme variant]	1.08	1.59	1.13	1.2	1.11	0.944
AUUCACCUAGGUUAUCGGGUG [Fam2.2 aminoacylation ribozyme variant]	3.15	28	4.34	2.89	5.2	4.33
AUUCACCUAGGUUAUCUGGUG [Fam2.2 aminoacylation ribozyme variant]	2.95	35.2	5.29	3.02	5.96	4.49
AUUCACCUAGGUUAUGGGGUG [Fam2.2 aminoacylation ribozyme variant]	4.76	78.4	8.25	5.44	11.2	8.28
AUUCACCUAGGUUUUCGGGUG [Fam2.2 aminoacylation ribozyme variant]	3.5	34.3	4.67	3.03	5.21	4.06
AUUCACCUAGUUAAUCGGGUG [Fam2.2 aminoacylation ribozyme variant]	2.04	20	3.08	2.01	3.98	3.53
AUUCACCUAGUUCAACGGGUG [Fam2.2 aminoacylation ribozyme variant]	1.73	17.1	2.42	1.65	2.88	2.46
AUUCACCUAGUUCAUCGGAUG [Fam2.2 aminoacylation ribozyme variant]	0.951	0.611	1.03	0.963	0.819	0.827
AUUCACCUAGUUCAUCGGUUG [Fam2.2 aminoacylation ribozyme variant]	1.09	0.483	0.932	1.09	1.11	0.661
AUUCACCUAGUUCAUCUGGUG [Fam2.2 aminoacylation ribozyme variant]	1.5	10.4	1.88	1.56	2.44	2.4
AUUCACCUAGUUCCUCGGGUG [Fam2.2 aminoacylation ribozyme variant]	2.06	19.7	2.42	2.06	3.31	2.63
AUUCACCUAGUUCGUCGGGUG [Fam2.2 aminoacylation ribozyme variant]	1.23	3.17	1.26	1.14	1.32	1.15
